# Laboratory results from PMC12442443, “Identifying interactions between TDP‐43's N‐terminal and RNA‐binding domains” (Protein Science : A Publication of the Protein Society, 2024).
# B1: TDP-43(102-260), tandem RNA recognition motifs RRM1 and RRM2 of TAR DNA-binding Protein 43 kilodaltons (domain or fragment, human)
# chain: KTSDLIVLGLPWKTTEQDLKEYFSTFGEVLMVQVKKDLKTGHSKGFGFVRFTEYETQVKVMSQRHMIDGRWCDCKLPNSKQSQDEPLRSRKVFVGRCTEDMTEDELREFFSQYGDVMDVFIPKPFRAFAFVTFADDQIAQSLCGEDLIIKGISVHISNA
# notes: 15N-labelled (M9 medium with 15NH4Cl) in the CPMG NMR; also called RRMs; RRM12; source: E. coli BL21(DE3), purified (His-Trap, Superdex size exclusion)
# Biological target: the molecule itself
# Assay: native gel or EMSA; 4-16% Bis-Tris native gel, Coomassie; 8.125 uM RRM alone or with NTD(1-77) at 0.5:1, 1:1 and 2:1 (NTD:RRM); incubated 10 min at 25 C in 300 mM NaCl, 40 mM HEPES pH 6.5, 4 mM DTT; full shift only at 2:1; also repeated with added RNA
protein,measurement,value
B1,stoichiometry N,2
